Experimental data published in US20040086863A1 (published 2004).

Key:
[1] = biological target: T1, HA-tagged PH domain of mSos1 (residues 448-577) (mouse, UniProt Q62245 448-577); assay: GST pull-down from yeast lysates, anti-HA western blot
T1 construct: range 448-577; Expressed in L40 yeast; The species is read from the printed prefix in 'mSos1'; also called SOS1 PH domain; not shown: HA tag
T1 sequence (looked up): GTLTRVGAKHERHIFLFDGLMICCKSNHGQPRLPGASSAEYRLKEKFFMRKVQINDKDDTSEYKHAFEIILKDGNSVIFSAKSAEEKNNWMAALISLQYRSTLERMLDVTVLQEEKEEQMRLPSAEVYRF

[2] = biological target: T2, HA-tagged PH domain of human RasGAP (residues 464-603) (human, UniProt P20936 464-603); assay: as above
T2 construct: range 464-603; Expressed in L40 yeast; also called Ras-GAP (GAP) PH domain; not shown: HA tag
T2 sequence (looked up): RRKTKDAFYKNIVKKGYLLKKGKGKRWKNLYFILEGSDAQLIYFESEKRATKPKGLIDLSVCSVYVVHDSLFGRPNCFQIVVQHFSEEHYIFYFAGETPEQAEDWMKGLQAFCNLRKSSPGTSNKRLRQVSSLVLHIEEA

[3] = biological target: T3, HA-tagged PH domain of mouse Ect-2 (residues 495-621) (mouse, UniProt Q07139 670-796); assay: as above
T3 construct: range 670-796; Expressed in L40 yeast; also called ECT-2 PH domain; not shown: HA tag
T3 sequence (looked up): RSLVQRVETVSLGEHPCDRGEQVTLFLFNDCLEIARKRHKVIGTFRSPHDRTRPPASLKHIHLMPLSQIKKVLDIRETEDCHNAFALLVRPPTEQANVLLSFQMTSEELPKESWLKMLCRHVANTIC

[4] = biological target: T4, HA-tagged IRS-1 PH domain mutant PH^W106A (rat, UniProt P35570 3-133); assay: GST pull-down from COS-1 lysates (500 µg), anti-HA western blot
T4 construct: range 3-133; Expressed transiently in COS-1 cells; The residue limits are not restated for this mutant; not shown: HA tag
T4 sequence (looked up): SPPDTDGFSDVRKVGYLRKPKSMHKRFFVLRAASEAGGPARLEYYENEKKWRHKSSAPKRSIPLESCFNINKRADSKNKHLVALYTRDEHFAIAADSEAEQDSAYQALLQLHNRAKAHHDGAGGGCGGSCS

Measured: binding result

B1: GST-PHIP fusion protein containing PHIP residues 8-209 (PBR) isolated from the yeast clone VP1.32 (other)
chain: VGELTENGLTLEEWLPSAWITDTLPRRCPFVPQMGDEVYYFRQGHEAYVEMARKNKIYSINPKKQPWHKMELREQELMKIVGIKYEVGLPTLCCLKLAFLDPDTGKLTGGSFTMKYHDMPDVIDFLVLRQQFDDAKYRRWNIGDRFRSVIDDAWWFGTIESQEPLQPEYPDSLFQCYNVCWDNGDTEKMSPWDMELIPNNAV
notes: Bacterially expressed and immobilized for pull-downs; also called GST-PHIP (PBR); not shown: glutathione S-transferase encoded by the pGEX-3X vector
no binding: all assays above
